Columns and labels:
[1] = target: PRC2 five-subunit (EZH2-EED-SUZ12-RBAP48-AEBP2) (UniProt Q15910-2;O75530;Q15022;Q09028;Q6ZN18-3 1-751;1-441;1-739;1-425;1-301); experiment: EMSA; 100 mM KCl; affinity near identical to six-subunit; EMSA: 50 mM Tris-HCl pH 7.5 (25 C), 100 mM KCl, 2.5 mM MgCl2, 0.1 mM ZnCl2, 2 mM 2-mercaptoethanol, 0.05 mg/ml BSA, 0.05 mg/ml yeast tRNA, 5% glycerol, 30 C 30; conditions: protein: recombinant; tags: MBP tags, removed by Prescission protease; copies: 1;1;1;1;1; label: 5'-32P (EMSA, UV); 5'-biotin (EM); no G4
[2] = target: PRC2 four-subunit holoenzyme (EZH2-EED-SUZ12-RBAP48) (UniProt Q15910-2;O75530;Q15022;Q09028 1-751;1-441;1-739;1-425); experiment: EMSA; 100 mM KCl; EMSA: 50 mM Tris-HCl pH 7.5 (25 C), 100 mM KCl, 2.5 mM MgCl2, 0.1 mM ZnCl2, 2 mM 2-mercaptoethanol, 0.05 mg/ml BSA, 0.05 mg/ml yeast tRNA, 5% glycerol, 30 C 30; conditions: protein: recombinant; tags: MBP tags, removed by Prescission protease; copies: 1;1;1;1; label: 5'-32P (EMSA, UV); 5'-biotin (EM); no G4
PRC2 four-subunit holoenzyme (EZH2-EED-SUZ12-RBAP48), sequence (Q15910 other isoform, or with tags, fused parts or gaps, chain 1 of 4): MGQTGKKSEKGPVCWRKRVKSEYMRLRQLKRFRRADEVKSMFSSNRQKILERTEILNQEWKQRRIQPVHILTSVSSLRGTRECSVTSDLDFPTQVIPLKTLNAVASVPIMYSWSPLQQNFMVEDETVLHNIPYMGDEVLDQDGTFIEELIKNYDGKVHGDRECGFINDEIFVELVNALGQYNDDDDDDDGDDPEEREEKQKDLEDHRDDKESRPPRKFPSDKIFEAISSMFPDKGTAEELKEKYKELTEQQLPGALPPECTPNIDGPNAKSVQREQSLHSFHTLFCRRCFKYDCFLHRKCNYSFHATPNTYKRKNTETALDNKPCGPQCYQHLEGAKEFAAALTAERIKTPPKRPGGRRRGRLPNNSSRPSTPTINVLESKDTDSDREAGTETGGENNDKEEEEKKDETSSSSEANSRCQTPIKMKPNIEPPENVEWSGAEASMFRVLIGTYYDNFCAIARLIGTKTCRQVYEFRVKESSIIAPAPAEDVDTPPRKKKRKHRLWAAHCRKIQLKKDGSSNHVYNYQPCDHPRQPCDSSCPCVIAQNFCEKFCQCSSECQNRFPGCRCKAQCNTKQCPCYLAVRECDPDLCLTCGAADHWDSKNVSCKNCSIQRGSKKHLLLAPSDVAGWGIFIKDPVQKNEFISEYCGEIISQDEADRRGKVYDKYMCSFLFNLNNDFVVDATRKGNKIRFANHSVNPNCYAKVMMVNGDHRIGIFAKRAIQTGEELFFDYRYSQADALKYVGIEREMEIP
PRC2 four-subunit holoenzyme (EZH2-EED-SUZ12-RBAP48), sequence (O75530 whole entry, chain 2 of 4): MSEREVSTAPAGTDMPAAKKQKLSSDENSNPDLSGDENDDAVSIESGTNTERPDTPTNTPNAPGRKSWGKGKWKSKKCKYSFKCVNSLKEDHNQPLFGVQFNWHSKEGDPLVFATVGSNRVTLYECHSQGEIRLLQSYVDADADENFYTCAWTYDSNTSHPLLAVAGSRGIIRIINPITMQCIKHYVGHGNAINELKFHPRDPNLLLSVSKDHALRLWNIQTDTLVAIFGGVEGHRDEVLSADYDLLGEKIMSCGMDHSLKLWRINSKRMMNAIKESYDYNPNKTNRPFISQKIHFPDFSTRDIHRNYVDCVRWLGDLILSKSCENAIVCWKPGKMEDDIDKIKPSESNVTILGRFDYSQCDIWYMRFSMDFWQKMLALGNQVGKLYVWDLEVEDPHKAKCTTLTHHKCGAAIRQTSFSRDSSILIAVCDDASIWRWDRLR
PRC2 four-subunit holoenzyme (EZH2-EED-SUZ12-RBAP48), sequence (Q15022 whole entry, chain 3 of 4): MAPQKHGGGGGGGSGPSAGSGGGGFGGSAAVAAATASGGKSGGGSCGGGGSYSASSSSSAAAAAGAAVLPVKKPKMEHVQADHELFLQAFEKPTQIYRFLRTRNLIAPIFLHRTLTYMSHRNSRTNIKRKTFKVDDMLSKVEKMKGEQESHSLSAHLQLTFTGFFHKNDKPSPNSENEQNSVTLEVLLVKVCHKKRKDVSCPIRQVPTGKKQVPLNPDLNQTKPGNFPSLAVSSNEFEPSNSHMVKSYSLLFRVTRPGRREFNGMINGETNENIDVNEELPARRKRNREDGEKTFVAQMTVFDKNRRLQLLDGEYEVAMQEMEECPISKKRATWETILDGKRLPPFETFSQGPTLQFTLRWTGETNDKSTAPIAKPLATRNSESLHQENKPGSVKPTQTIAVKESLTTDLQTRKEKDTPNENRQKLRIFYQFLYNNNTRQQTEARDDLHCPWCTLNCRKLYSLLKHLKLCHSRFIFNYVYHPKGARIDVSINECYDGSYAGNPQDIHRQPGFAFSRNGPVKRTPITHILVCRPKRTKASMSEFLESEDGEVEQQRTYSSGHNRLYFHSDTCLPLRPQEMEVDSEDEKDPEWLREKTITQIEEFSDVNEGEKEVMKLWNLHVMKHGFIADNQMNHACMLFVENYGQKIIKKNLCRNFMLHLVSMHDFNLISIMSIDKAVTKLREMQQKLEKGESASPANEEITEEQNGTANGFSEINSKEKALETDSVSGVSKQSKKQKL
PRC2 four-subunit holoenzyme (EZH2-EED-SUZ12-RBAP48), sequence (Q09028 whole entry, chain 4 of 4): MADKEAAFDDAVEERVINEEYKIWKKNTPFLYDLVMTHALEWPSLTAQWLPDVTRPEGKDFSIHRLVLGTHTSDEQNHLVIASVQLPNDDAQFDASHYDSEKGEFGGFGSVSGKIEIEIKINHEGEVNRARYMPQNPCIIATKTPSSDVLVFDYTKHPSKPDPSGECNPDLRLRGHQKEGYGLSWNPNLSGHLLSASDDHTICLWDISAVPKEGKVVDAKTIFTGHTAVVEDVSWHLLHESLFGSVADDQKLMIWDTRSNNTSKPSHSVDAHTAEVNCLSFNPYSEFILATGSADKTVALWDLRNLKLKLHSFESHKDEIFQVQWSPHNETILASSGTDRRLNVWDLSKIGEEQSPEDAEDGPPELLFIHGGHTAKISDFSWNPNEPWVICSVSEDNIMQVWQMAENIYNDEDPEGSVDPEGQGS

AAAAAAAAAAGAGAGAGAUGAGUGUGAGUGUGAGUGUGAGUGAGAGAGAG (ssRNA) [TERRAmut]
binding signal [1]: 4 Kd ratio TERRAmut/TERRA
binding signal [2]: 12 Kd ratio TERRAmut/TERRA

Reference: article PMC12668130, “RNA-induced PRC2 inhibition depends on the sequence of bound RNA”
